This note sets out measurements from PMC6235537 (Science Advances, 2018).

As a reminder, the Kd is the constant that tells how readily two partners part at equilibrium.

One assay addresses T1, GM^CBM21 (Oryctolagus cuniculus, UniProt Q00756).
T1 sequence (Q00756 102-237): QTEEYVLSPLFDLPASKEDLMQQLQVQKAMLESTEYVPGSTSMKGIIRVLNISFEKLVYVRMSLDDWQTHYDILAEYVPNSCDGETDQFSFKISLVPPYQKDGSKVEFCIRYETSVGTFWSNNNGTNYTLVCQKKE
The assay can be described thus: ITC. The format is binding.

The target in assay [1] is T2, His6-tagged PP1α_(7–330) (UniProt P62136 7-330). The assay can be described thus: SPR. (In general: SPR reads the build-up and loss of mass on a sensor chip optically.)
Assay [2] concerns the target PP1α_(7–300) (as crystallised with GM^64–93 and microcystin-LR) (UniProt P62136 7-300). The assay can be described thus: crystal structure.
The target in assay [3] is T2, His6-tagged PP1α_(7–330). The assay can be described thus: ITC.
Another assay concerns the target His6-tagged PP1β_(6–327) (UniProt P62140 6-327). The assay can be described thus: ITC. For orientation: Isothermal titration calorimetry measures the heat released or taken up as one component is titrated into another.
The target in a further assay is His6-tagged PP1γ_(7–323) (UniProt P36873 7-323). The assay can be described thus: ITC.
The target in the next assay is His6-tagged PP1γ_(7–308) (UniProt P36873 7-308). The assay can be described thus: ITC.
Another assay concerns the target His6-tagged PP1α_(7–300) (UniProt P62136 7-300). The assay can be described thus: ITC.

T2 sequence (P62136 7-330): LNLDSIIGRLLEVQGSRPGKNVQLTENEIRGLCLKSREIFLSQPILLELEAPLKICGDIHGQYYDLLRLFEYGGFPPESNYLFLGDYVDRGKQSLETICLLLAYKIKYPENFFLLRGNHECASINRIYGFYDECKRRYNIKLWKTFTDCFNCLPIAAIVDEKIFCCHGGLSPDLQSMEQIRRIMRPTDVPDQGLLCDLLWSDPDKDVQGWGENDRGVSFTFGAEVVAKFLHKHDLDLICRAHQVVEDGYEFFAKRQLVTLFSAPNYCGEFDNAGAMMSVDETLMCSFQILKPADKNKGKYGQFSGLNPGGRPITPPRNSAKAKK
Sequence of His6-tagged PP1γ_(7–323) (P36873 7-323): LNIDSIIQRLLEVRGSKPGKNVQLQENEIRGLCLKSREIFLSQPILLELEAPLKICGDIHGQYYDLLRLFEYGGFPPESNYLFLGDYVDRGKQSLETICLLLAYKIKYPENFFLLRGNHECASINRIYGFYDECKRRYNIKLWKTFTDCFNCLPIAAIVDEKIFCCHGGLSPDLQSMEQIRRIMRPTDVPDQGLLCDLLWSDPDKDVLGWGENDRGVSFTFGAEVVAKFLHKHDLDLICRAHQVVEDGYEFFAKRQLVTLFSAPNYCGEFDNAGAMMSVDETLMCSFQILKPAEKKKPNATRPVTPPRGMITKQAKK
Sequence of His6-tagged PP1γ_(7–308) (P36873 7-308): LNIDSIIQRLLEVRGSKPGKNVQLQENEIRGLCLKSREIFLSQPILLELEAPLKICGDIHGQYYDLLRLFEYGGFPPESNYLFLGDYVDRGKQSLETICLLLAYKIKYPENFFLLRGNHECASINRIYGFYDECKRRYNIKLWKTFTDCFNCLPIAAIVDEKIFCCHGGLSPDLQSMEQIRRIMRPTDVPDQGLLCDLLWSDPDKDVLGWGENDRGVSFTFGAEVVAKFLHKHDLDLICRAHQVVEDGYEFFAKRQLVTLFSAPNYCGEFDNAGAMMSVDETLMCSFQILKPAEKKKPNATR
Sequence of His6-tagged PP1β_(6–327) (P62140 6-327): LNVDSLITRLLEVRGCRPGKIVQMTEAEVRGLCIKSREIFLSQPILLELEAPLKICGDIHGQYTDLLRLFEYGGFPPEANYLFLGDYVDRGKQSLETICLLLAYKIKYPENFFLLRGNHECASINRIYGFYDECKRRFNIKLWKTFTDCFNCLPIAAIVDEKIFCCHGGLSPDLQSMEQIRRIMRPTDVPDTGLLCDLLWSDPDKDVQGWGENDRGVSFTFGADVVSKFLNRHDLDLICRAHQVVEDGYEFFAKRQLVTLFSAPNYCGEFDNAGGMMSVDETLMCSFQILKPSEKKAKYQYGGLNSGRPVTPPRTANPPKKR
Sequence of His6-tagged PP1α_(7–300) (P62136 7-300): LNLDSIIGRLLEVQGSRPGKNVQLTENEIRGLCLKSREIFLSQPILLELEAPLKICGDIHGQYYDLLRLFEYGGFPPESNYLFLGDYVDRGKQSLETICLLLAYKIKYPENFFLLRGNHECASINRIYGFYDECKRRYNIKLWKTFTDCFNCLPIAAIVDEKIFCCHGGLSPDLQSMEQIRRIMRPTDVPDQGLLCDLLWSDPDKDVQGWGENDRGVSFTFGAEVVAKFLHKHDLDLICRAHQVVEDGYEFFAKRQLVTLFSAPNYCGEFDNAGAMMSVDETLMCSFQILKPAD
Sequence of PP1α_(7–300) (as crystallised with GM^64–93 and microcystin-LR) (P62136 7-300): as above

As to `OC[C@H]1O[C@@H]2O[C@H]3[C@H](O)[C@@H](O)[C@@H](O[C@H]4[C@H](O)[C@@H](O)[C@@H](O[C@H]5[C@H](O)[C@@H](O)[C@@H](O[C@H]6[C@H](O)[C@@H](O)[C@@H](O[C@H]7[C@H](O)[C@@H](O)[C@@H](O[C@H]1[C@H](O)[C@H]2O)O[C@@H]7CO)O[C@@H]6CO)O[C@@H]5CO)O[C@@H]4CO)O[C@@H]3CO` [α-CD], on GM^CBM21, binding was put at a Kd of 27600 nM.
Molecule `OC[C@H]1O[C@@H]2O[C@H]3[C@H](O)[C@@H](O)[C@@H](O[C@H]4[C@H](O)[C@@H](O)[C@@H](O[C@H]5[C@H](O)[C@@H](O)[C@@H](O[C@H]6[C@H](O)[C@@H](O)[C@@H](O[C@H]7[C@H](O)[C@@H](O)[C@@H](O[C@H]8[C@H](O)[C@@H](O)[C@@H](O[C@H]1[C@H](O)[C@H]2O)O[C@@H]8CO)O[C@@H]7CO)O[C@@H]6CO)O[C@@H]5CO)O[C@@H]4CO)O[C@@H]3CO` [β-CD] showed an equilibrium dissociation constant (Kd) at GM^CBM21 of 8200 ± 100 nM.
As for RRVSFADNFGFNLVSVKEFDTWELPSVSTTFELGKDAFQTEE [GM^64–105 peptide], in the assay with His6-tagged PP1α_(7–330) [1], the Kd was 114 ± 4 nM.
For RRVSFADNFGFNLVSVKEFDTWELPSVSTT [GM^64–93 peptide], in assay [2], the binding result was “binds”.

B1: GM^2–237 (muscle glycogen-targeting subunit of PP1, PPP1R3A, residues 2 to 237) (domain or fragment)
chain: EPSEVPGQNSKDNFLEVPNLSDSLCEDEEVKAIFKPGFSPQPSRRGSESSEEVYVHTASSGGRRVSFADNFGFNLVSVKEFDTWELPSVSTTFELGKDAFQTEEYVLSPLFDLPASKEDLMQQLQVQKAMLESTEYVPGSTSMKGIIRVLNISFEKLVYVRMSLDDWQTHYDILAEYVPNSCDGETDQFSFKISLVPPYQKDGSKVEFCIRYETSVGTFWSNNNGTNYTLVCQKKE
As for B1, in the assay with His6-tagged PP1α_(7–330) [3], the dissociation constant (Kd) was 26.5 ± 2.3 nM and the dH was -20.2 ± 1 kcal/mol.

B2: GM^64–237 (domain or fragment)
chain: RRVSFADNFGFNLVSVKEFDTWELPSVSTTFELGKDAFQTEEYVLSPLFDLPASKEDLMQQLQVQKAMLESTEYVPGSTSMKGIIRVLNISFEKLVYVRMSLDDWQTHYDILAEYVPNSCDGETDQFSFKISLVPPYQKDGSKVEFCIRYETSVGTFWSNNNGTNYTLVCQKKE
Turning to B2, the Kd with His6-tagged PP1β_(6–327) came to 17.3 ± 4 nM; with His6-tagged PP1γ_(7–323) it was 21.4 ± 11.6 nM; with His6-tagged PP1γ_(7–308) it was 55.7 ± 5.1 nM; with His6-tagged PP1α_(7–330) [3] it was 20.8 ± 2.4 nM; in the assay with His6-tagged PP1α_(7–300), 51 ± 5.1 nM. Moreover, the dH with His6-tagged PP1β_(6–327) is -15.4 ± 0.8 kcal/mol; in the assay with His6-tagged PP1γ_(7–323), -22.6 ± 0.1 kcal/mol; in the assay with His6-tagged PP1γ_(7–308) it was -13.3 ± 5.2 kcal/mol; in the assay with His6-tagged PP1α_(7–330) [3], -34.5 ± 2.4 kcal/mol; in the assay with His6-tagged PP1α_(7–300), -25.1 ± 0.9 kcal/mol.
